Measurements as given in paper PMC2199927.

Target: c-myc-tagged Sec8 (S. cerevisiae) (UniProt P32855)
Test: co-IP

B1: Sec4 (natural protein)
chain: MSGLRTVSASSGNGKSYDSIMKILLIGDSGVGKSCLLVRFVEDKFNPSFITTIGIDFKIKTVDINGKKVKLQLWDTAGQERFRTITTAYYRGAMGIILVYDVTDERTFTNIKQWFKTVNEHANDEAQLLLVGNKSDMETRVVTADQGEALAKELGIPFIESSAKNDDNVNEIFFTLAKLIQEKIDSNKLVGVGNGKEGNISINSGSGNSSKSNCC
percent of the total Sec4 associated (limit of detection): < 0.07%
